Measured values published in the supplement of paper PMC12042874.
± gives the uncertainty stated by the source.

Assay: amyloid nucleation score (Sup35N fusion, yeast selection) (log enrichment); library NNK2; higher = more nucleation; inactive = no reads after selection
Procedure, shortened: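 Plasmid inserts were Illumina-sequenced at input and output from psi-negative yeast expressing Sup35N fused to peptides of 20 random codons. The yeast were induced with 100 μM copper sulfate for 24 hours and grown 7 days at 30°C on medium lacking adenine and uracil, and sequences with under 100 input reads were excluded. Nucleation score is the DiMSum log enrichment of output over input reads, centred on the mode score of non-aggregating sequences.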

Substance	amyloid nucleation score
NSNLNYPECWEEWTLNHFTD	inactive
NSREALVKVGNECP	inactive
NSSTVGMIAF	-0.317 ± 0.22
NSTCDMLVSQVVAAVNGF	-0.715 ± 0.49
NSTDSSFGKARYFLSNSYWV	inactive
NSVCSTLKHLSNLGSIDIQH	-0.363 ± 1.1
NSVCYGP	0.899 ± 0.47
NSVDTTCAL	1.04 ± 0.41
NSYILKDFNCEPGVNMDWQN	inactive
NTKYRRFFFNTVRLLHM	-0.28 ± 0.79
NTQDFGLCYIFFLQDRCN	-0.117 ± 0.49
NTRCGCWLVSAML	0.196 ± 0.77
NTRRSFVRVYFNGLGLCGAN	inactive
NTSFRGTTTRKSY	-0.233 ± 0.29
NVAGCSWSSQLPRPTP	1.46 ± 0.61
NVERSFGAVGQVRIEEYARD	0.266 ± 1
NVLRCINYYLYYTSGCASSS	-0.169 ± 0.42
NVLRFSSTSLYGLAFLAEGS	-0.577 ± 0.3
NVPCGLN	-0.032 ± 1.1
NVRFLMMI	inactive
NVRMSGLF	2.67 ± 0.14
NVSSSLPF	-0.424 ± 0.78

Substance	amyloid nucleation score
NWCWYHANRLGCFGASCHVV	4.52 ± 0.071
NWDNSNLVFLYNSGLGNYVS	-0.874 ± 0.78
NWGWFVSLFYGVAAGDHSRT	0.955 ± 0.37
NWLLRG	1.26 ± 0.37
NWNLRHRCAGWYCDRRKVLR	4.28 ± 0.085
NYCVLSFDISGYAFYKEGLG	-0.492 ± 1.1
NYHKWNVDSDFVYKGYGGHC	-0.573 ± 0.48
NYLMWVITSTYWRHGRESWA	3.03 ± 0.057
NYRMCFTLHSCYLIRSDNLS	inactive
PAIHVVDTRVGWRHSMSGYS	1.72 ± 0.15
PAKERLFRVETGRFRMKGSW	1.63 ± 0.13
PAMSVHGNSAESTYVIMHYF	-0.494 ± 0.54
PANGS	-0.249 ± 1
PARAKRLTAL	-0.207 ± 0.29
PARMNLYVCIYV	7.32 ± 0.081
PARTYILYNPDAGMSLKWSS	-1.06 ± 1.1
PAVDRIFSRLCTYSGQFIPQ	4.66 ± 0.061
PAWATTLLDTSTARLYNMLA	0.157 ± 0.18
PAYLDPCTSFSVILAMVLLW	0.697 ± 0.55
PCERPFERFLVLNRFSDSST	0.183 ± 0.62
PCIFFMRFYFRT	-0.078 ± 0.65
PCIRPLDKVCLIFFTGIFLW	-1.47 ± 0.78

Substance	amyloid nucleation score
PCQCKV	4.16 ± 0.072
PCRYSSKSNYTW	-0.507 ± 0.76
PDFKNLSYWLSVDTMPSRWV	inactive
PDRSTFRVYSLHWTFCEHRC	3.74 ± 0.1
PDSGVSDESHLRCLPGVPRI	0.066 ± 0.28
PEDLLGRWIIFSYVFTIYSI	inactive
PEFGTDIPKSRRRKEGCRGG	0.717 ± 0.23
PEILMSDGIRKLCSVYVFLR	inactive
PERCYQTG	-0.251 ± 0.76
PFGHFQLLINSKTGMRSVMT	-0.463 ± 0.37
PFGKPVYLIFPPGMLVIFRA	-0.603 ± 1.1
PFRGYFGVLSYAVFGEAGPV	4.4 ± 0.067
PFSNMLASAFNFILITCSDL	inactive
PFSRLNPRDPLWVEMFVCWQ	3.48 ± 0.066
PFSWH	1.38 ± 0.14
PFTSYML	5.63 ± 0.065
PFYVSRRVCKYAF	-0.301 ± 0.28
PGEECGGLSITIEWGTSSS	0.211 ± 0.5
PGHLLRILVFSNNYAYQRDI	-0.647 ± 0.42
PGILDNRLGKQGAGLDLRWH	1.17 ± 0.24
PGLRGGA	-0.398 ± 0.76
PGLTVYFGTVRMKVHCWSYR	9.779 ± 0.029

Substance	amyloid nucleation score
PGNNMLFMWYHWGLGCNFLM	-0.059 ± 0.79
PGSKPPWVSYGNPSTMAIGM	-0.472 ± 0.79
PGSLSLIINIKCTTAKDRTL	2.79 ± 0.13
PGYGPLTMGGS	1.35 ± 0.24
PGYSSNSCERDLLGRASVWL	-0.593 ± 0.74
PHLASPYHHPCNPQFLFPYL	0.016 ± 1.1
PHRSPMGANHPERCLVPMLF	-0.134 ± 0.55
PIARN	-0.47 ± 1
PIGINSVKVSNYINLRYCAC	5.736 ± 0.043
PIGRSCIYHKWE	1.98 ± 0.18
PILADGLCIFNR	-0.47 ± 0.34
PIRLQIWVWPVPKR	0.8 ± 0.55
PIRWVGHNKGFQGL	-1.22 ± 0.75
PIVLAK	-0.672 ± 0.79
PIWFQFGVANTSGLNGVLTS	0.612 ± 0.34
PIYCNQRVDRALTMFTQFRA	-0.121 ± 1.1
PKLPLAESR	-0.11 ± 0.53
PKMRFFPIARSSIRERNVWV	-1.31 ± 0.34
PKNMWGSNNLRGMPVSDVKS	0.032 ± 0.34
PLCFLVMGHGTRCVCRWNTG	-0.464 ± 0.63
PLLGLRG	0.102 ± 1.1
